Experimental data from the DeepSol protein solubility set.

test: soluble on expression in E. coli; label from the status in PepcDB or PDB records

Sequence	soluble on expression in E. coli
MGSDKIHHHHHHMQEIVDQLAATIRAAAASNVPLRIRSGGTKDFYGQQDKGRDVAPEGILDPTAFAGIVDYEPTELVVTARTGTPLAQLETELNGRGQMLAFEPPHFGAGATLGGCIAAGLSGPRRASAGAVRDFVLGVRMLDGRGDDLSFGGRVMKNVAGYDIPRLMAGSLGTLGLLLEVSLKVLPLPAEERTLRLSMNEAVAIETMNRWAGKPLPVSATCFCEGELTVRLSGATSAVRAARAVLGGEEIVENSSFWKSIREQVHPFFRSGKQLWRLSIKSTTAPLSLPGKQLIEWGGAVRWLSVDAEMDNDAVETLVRKTAKEAGGHATLFRSRTPAAAVFHPLPPAMMNIHRQLKEKFDPMRIFNRGRLYPEL	not soluble
MDQKQLQALVEQISIRVFGKPFRHTAFFNPRLRTTGGRYMLQTHNIELNKKHYEQFGEEELIAIIKHELCHYHLHLEGKGYRHRDRDFRELLQKVGAPRYCRPLARNTKAPKTIYTYICTSCGLTYRRKRRINIDRYVCGRCRSKLKRS	not soluble
MGSDKIHHHHHHMMDFYIKQIIIHQFSPNDTELVLSDTPLTLTPRIDDYFRKKLSKVFSDEAKRGYFGEDNVFMSHLQDDLYVSSCQIAQLWKEEFVISEDQKTNDLVFIQFDKDGMEHFAFLRISLKEQFAHVSENQEQPITITQNNLPSAAQTPDEALVVNKSSKQYYLIEKRIKHNGSFANYFSENLLQVQPEQSVKKSIKMVEQTAQKIAENFNKDDFSFQSKMKSAIYKNLEEEQELSPEKLADQLFDDNLTARLTFVDELKDAIPGPVQVSDIDHSRQIKKLENQKLSLSNGIELIVPNNVYQDAESVEFIQNPDGTYSILIKNIQDIQNK	not soluble
MLATPFWYNAALKVLKPVYRWRIKKRAENEMRYQQECRERFGPFQQPQNRHALWFHAVSVGETNAAQPLIEYYLKLGHPVLVTNTTKTGQARAKSLFLKSPYLELFQAVYLPVDQIFLLKQFFELYQPKLLALVETELWPNLIDQAQHYGVPTFLINARLSEKSAQGYARVSALSNAMLSRLTGLLAQDQSTQQRFIGLGLAREKAQVVGNIKFDIDVPLLFVLEHHHHHH	not soluble
MRGSHHHHHHGMTIFEKKPDFTLFLQTLSWEIDDQVGIEVRNELLREVGRGMGTRIMPPPCQTVDKLQIELNALLALIGWGTVTLELLSEDQSLRIVHENLPQVGSAGEPSGTWLAPVLEGLYGRWVTSQAGAFGDYVVTRDVDAEDLNAVPRQTIIMYMRVRSSAT	soluble
MGASGRICTVVPVEDAGEAAMLALSSPTGCVELRLDFYPGDPGEALELLATRLHSPARVVVTLRSAGHGGLDRRARGERRAVLARLEDLAPEGWLVDYEVEDLHASSGCSGCIASSHPTTPPTPRRALEEAAVAERLGASAYKLVYPGVEPWEQAAAARLVAEAGGFATSFTLGPGTLASRLTALALGAPLVFGSHPRAPLDGVPQSSEIMELYLRMGLGES	not soluble
MGSDKIHHHHHHMEYNDVVEAVISALKKAHTELPEDVVTAIKKAYDSEENDIAKRNLEAILKNIEAAKKLGVPMCQDTGIPVFFVEVGRELCLDFDLKEAIVEGVRKATAEIPLRPNAVHPITRENSGDNTGLGIPQINVELVKGDELRMVVMPKGAGSENVSALKMMLPTQVDKIKDFVVETVKNAGGKPCPPIFVGVGVGSTFDGAAKLAKKALLRNVLEMNDFELELLEAVNELGIGAMGLGGKYTALAVLVEFGHCHTASLPVAVNIQCWANRRAEVVLR	not soluble
MSQRIIQPSASDQQFPGKSDGYEYTVGPKQAITSEASTTYIPSRIYSESLLFKRQEASLSAMAFLFQEMISQLHRTCKTAGDFETKLSDYGHNIGIRLLELLNFRASVSPSSLPRASAFLSQNESSSKLSNASNSPGMLANSSTATSASANERLQEKQTESLSNYITKMRRRDLKILDILQFIHGTLWSYLFNHVSDDLVKSSERDNEYMIVDNFPTLTQFIPGENVSCEYFVCGIIKGFLFNAGFPCGVTAHRMPQGGHSQRTVYLIQFDRQVLDREGLRFG	soluble
MAHHHHHHMFFCPFCSTLLLVVPHVEGNALVCATCRYVHSVASASPQVPRNAFGEPILTIQHSFVAHNRQLMDAEEDPAMEAAASSSAAACHTTAAFTPVVKAETSAEGGQITTIPCQNEDNPCQSTKAYFIQIQMRSADEPATVFFKCVECGHQWRQD	not soluble
GNNMYKLSENNHKSLLENLKRRGIIDDDDVYNTMLQVDRGKYIKEIPYIDTPVYISHGVTISAPHMHALSLKRLINVLKPGSRAIDVGSGSGYLTVCMAIKMNVLENKNSYVIGLERVKDLVNFSLENIKRDKPELLKIDNFKIIHKNIYQVNEEEKKELGLFDAIHVGASASELPEILVDLLAENGKLIIPIEEDYTQVLYEITKKNGKIIKDRLFDVCFVSLKKN	soluble
MVDVIALGEPLIQFNSFNPGPLRFVNYFEKHVAGSELNFCIAVVRNHLSCSLIARVGNDEFGKNIIEYSRAQGIDTSHIKVDNESFTGIYFIQRGYPIPMKSELVYYRKGSAGSRLSPEDINENYVRNSRLVHSTGITLAISDNAKEAVIKAFELAKSRSLDTNIRPKLWSSLEKAKETILSILKKYDIEVLITDPDDTKILLDVTDPDEAYRKYKELGVKVLLYKLGSKGAIAYKDNVKAFKDAYKVPVEDPTGAGDAMAGTFVSLYLQGKDIEYSLAHGIAASTLVITVRGDNELTPTLEDAERFLNEFKT	soluble
MISNQILQNTIEGIKSISRVDLHVADTDGKIIASTSQLGDEFGHAIISFVNSPADSQSVQEYQFFKVYDESQLELILIAQGTSDDVFMVGKMAAFQIQNLLVAYKERFDKDNFIKNLLLDNLLLVDIYNRSKKLYIDVDARRCVCIIETKNEKDSVALETVRTLFSGNKKDFITAVDEKSIILVKELEEKQGYEDIEKIARTIVDMLNTEAMVKATVAYGTIVKEIKEVSRSYKEARMALDVGKIFFSTKNVIAYNNLGIGRLIYQLPIPLCKMFISEIFEGKSPDEFDEETLTTINKFFENSLNVSETSRQLYIHRNTLVYRLDKLQKSTGLDLRVFEDAITFKIALMVVKYMKYMENTDF	not soluble
MWRRHYKLVPQIDTRDCGPAVLASVAKHYGSNYSIAYLRELSKTNKQGTTALGIVEAAKKLGFETRSIKADMTLFDYNDLTYPFIVHVIKGKRLQHYYVVYGSQNNQLIIGDPDPSVKVTRMSKERFQSEWTGLAIFLAPQPNYKPHKGEHHHHHH	soluble
MGHHHHHHSHMEEAGSVALEELVEKEKDRFFSGVDYIVISDNLWISQRKPAITYGTRGNSYFMVEVKCRDQDFHSGTFGGILHEPMADLVALLGSLVDSSGHILVPGIYDEVVPLTEEEINTYKAIHLDLEEYRNSSRVEKFLFDTKEEILMHLWRYPSLSIHGIEGAFDEPGTKTVIPGRVIGKFSIRLVPHMNVSAVEKQVTRHLEDVFSKRNSSNKMVVSMTLGLHPWIANIDDTQYLAAKRAIRTVFGTEPDMIRDGSTIPIAKMFQEIVHKSVVLIPLGAVDDGEHSQNEKINRWNYIEGTKLFAAFFLEMAQLH	not soluble
MSRRGLEREGGKPVSSDAKGLKRVDVRLKWDPSPWDRPPHHLDIIATTYAADAPHGRPVYVVQFDKRSPDGTINMSRHSRTGQGFGFVEEMTFELDRLSPSIARVIVGVAIHQDNGHKTFDDVSNTGVVVAEGYRELLTDGFERVAGATAATVAEFTRNASGAWEFREAVRGFDSDPVLFATEMGSAPRP	soluble
MSEQLVTPENVTTKDGKINLLDLNRQQMREFFKDLGEKPFRADQVMKWMYHYCDNFDEMTDINKVLRGKLKEVAEIRAPEVVEEQRSSDGTIKWAIAVGDQRVETVYIPEDDRATLCVSSQVGCALECKFCSTAQQGFNRNLRVSEIIGQVWRAAKIVGAAKVTGQRPITNVVMMGMGEPLLNLNNVVPAMEIMLDDFGFGLSKRRVTLSTSGVVPALDKLGDMIDVALAISLHAPNDEIRDEIVPINKKYNIETFLAAVRRYLEKSNANQGRVTIEYVMLDHVNDGTEHAHQLAELLKDTPCKINLIPWNPFPGAPYGRSSNSRIDRFSKVLMSYGFTTIVRKTRGDDIDAACGQLAGDVIDRTKRTLRKRMQGEAIDIKAV	not soluble
MSLKINVAPENPQYRIVEIFESLQGEGWNTGMPAVFVRLGKCNLACGWCDTDYLTFGMMGLSDILGRLKTYAARNIIITGGEPTIQPHLDMLLDTLKAEGYFLCLETNGLNPAPPQIDYVATSPKACYAAKYENSCIETADEVRIVADGDVLAFCENMERKIRAHHYYLSPCEQDGAMNIYDTIRQIGILNSRPDASVHWQLSVQTHKWAGIEEGHHHHHH	soluble
MAHHHHHHSLSLKGFVKVERRMADRTIKMLQSRGYFDSDYEIRHEGDYVLIPVKDGFTGPVVVKDAEKKPKVIPASGSFDIIGTIAITKKDDVEFAKEILKTHKNIKSVYLDKGVKGKERIRDLVLLAGIDSTVALYRENGCIFKIDVSKSYFSPRLATERRRLVDSILDGEFIVDMFAGSGPISIEVAKKRRVKIISIDINCAAIESLQESMRLNSLLGTITPICGDARQLIKDIHDADRIIMNHPTDAFSFLPCALEALKYGGHINYYEILNKDDVTKRLADFNFMRLKVFSYHRVHSYSKLSDLISFDLIREGEG	soluble
GMSDLQSLQPKLLWQWFDQICAIPHPSYKEEQLAQFIINWAKTKGFFAERDEVGNVLIRKPATVGMENRKPVVLQAHLDMVPQANEGTNHNFDQDPILPYIDGDWVKAKGTTLGADNGIGMASALAVLESNDIAHPELEVLLTMTEERGMEGAIGLRPNWLRSEILINTDTEENGEIYIGCAGGENADLELPIEYQVNNFEHCYQVVLKGLRGGHSGVDIHTGRANAIKVLLRFLAELQQNQPHFDFTLANIRGGSIRNAIPRESVATLVFNGDITVLQSAVQKFADVIKAELALTEPNLIFTLEKVEKPQQVFSSQCTKNIIHCLNVLPNGVVRNSDVIENVVETSLSIGVLKTEDNFVRSTMLVRSLIESGKSYVASLLKSLASLAQGNINLSGDYPGWEPQSHSDILDLTKTIYAQVLGTDPEIKVIHAGLECGLLKKIYPTIDMVSIGPTIRNAHSPDEKVHIPAVETYWKVLTGILAHIPSR	soluble
MEGQQVILHLPLSQKGPFWTWEPSAPRTLLQVLQDPALKDLVLTCPTLPWHSLILRPQYEIQAIMHMRRTIVKIPSTLEVDVEDVTASSRHVHFIKPLLLSEVLAWEGPFPLSMEILEVPEGRPIFLSPWVGSLQKGQRLCVYGLASPPWRVLASSKGRKVPRHFLVSGGYQGKLRRRPREFPTAYDLLGAFQPGRPLRVVATKDCEGEREENPEFTSLAVGDRLEVLGPGQAHGAQGSDVDVLVCQRLSDQAGEDEEEECKEEAETQSGSCCPSTSLAVSWRRLEHHHHHH	not soluble
GMKFNEFLNNLSNYEPGKDIEVIAKEYGVKEVIKLASNENPFGTPPKAIECLRQNANKAHLYPDDSMIELKSTLAQKYKVQNENIIIGAGSDQVIEFAIHSKLNSKNAFLQAGVTFAMYEIYAKQCGAKCYKTQSITHNLDEFKKLYETHKDEIKLIFLCLPNNPLGECLDASEATEFIKGVNEDCLVVIDAAYNEFASFKDSKKHLEPCELIKEFDNVLYLGTFSKLYGLGGLRIGYGIANANIISAFYKLRAPFNVSNLALKAAVAAMDDDEFTEKTLENNFSQMELYKEFAKKHNIKIIDSYTNFITYFFDEKNSTDLSEKLLKKGIIIRNLKSYGLNAIRITIGTSYENEKFFTEFDKILR	soluble
MGSDKIHHHHHHMKNNRINIHSQQYMETMARLMSEALESPEGMRALAAAIAAPIEQEIKRKEISSLLLTRHTLPKGERPIYQKKPTVKAHWISKDGEAQEQELGKDEVEFPTNRIHSNPMVDISVLKHGNIGTLMDIQTGAASSIRKEMDSRTITVISSAIPAANTVEVTGDKVTEEALNEAISIIEDLELSVKYIVLRGRRFNDMRSWNLDPQTKLELRQKGVIKNYGTGGILLTAAMPMDEIIIVPDEEVGKLPVRENLKTESIDQKTRFKTGWLVWSEIGQGITRPDILAKVKLVP	not soluble
